Assay results from US20040214757.

Experiments:
Test in all cases: EMSA
[1] = target: Oct-2 truncated at StuI (cDNA 655-1443) (Homo sapiens, UniProt P09086 SEQ:199-461)
Method: (§1) The polypeptides translated in vitro from these RNAs were tested for specific DNA binding by addition of the total translation mix to the DNA-protein gel assay.

[2] = target: T1, Oct-2 truncated at PstI (cDNA 655-1134) (Homo sapiens, UniProt P09086 SEQ:199-358)
T1 sequence: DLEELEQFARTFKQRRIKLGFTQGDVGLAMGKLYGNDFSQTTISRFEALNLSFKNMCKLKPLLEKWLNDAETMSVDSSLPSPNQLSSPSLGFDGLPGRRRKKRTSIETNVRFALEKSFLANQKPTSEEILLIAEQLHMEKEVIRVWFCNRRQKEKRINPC
Method: as §1

[3] = target: Oct-2 (pBS-ATG-oct-2, cDNA 655-1710) (Homo sapiens, UniProt P09086 SEQ:199-466)
Method: as §1

Measured: binding result

B1: OCTA octanucleotide probe (dsDNA)
DNA 1: ATGCAAAT
DNA 2: ATTTGCAT
binds: all assays above
